The test deals with HLA-A2.1 (HLA-A*0201) with β2-microglobulin on the surface of T2 cells (human).

1 molecule from patent US20060045884A1, “Vaccines for autoimmune and infectious disease” (Board of Regents, priority 2004, published 2006) can be followed below.

In the case of KLGEFYNQMM (modifications not checked) [Influenza B nucleoprotein peptide (aa 85-94), P04665 85-94], the Median Channel of Fluorescence of HLA-A2 Expression on T2 (median channel of fluorescence) was 194.
